# Source: US20150344570A1 (published 2015)
# T1: FcγRIIb extracellular domain with C-terminal His tag (human, UniProt P31994 43-217)
# T1 construct: extracellular domain; also called FcgRIIb; 2b; not shown: His tag at the C terminus
# T1 sequence (looked up): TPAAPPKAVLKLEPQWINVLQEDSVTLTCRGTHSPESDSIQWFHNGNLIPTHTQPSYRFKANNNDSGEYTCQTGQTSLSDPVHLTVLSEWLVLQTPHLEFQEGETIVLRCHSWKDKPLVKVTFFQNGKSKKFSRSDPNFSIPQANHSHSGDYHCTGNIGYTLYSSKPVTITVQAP
# B1: GpH7-A5/GpH7-B3 variant Y296_14T/GpL16-k0 (antibody, human IgG1, kappa)
# heavy 1: not shown
# heavy 2: not shown
# light: DIVMTQSPLSLPVTPGEPASISCQASESLVHSNRNTYLHWYLQKPGQSPQLLIYKVSNRFSGVPDRFSGSGSGTDFTLKISRVEAEDVGVYYCSQNTHVPPTFGQGTKVEIERTVAAPSVFIFPPSDEQLKSGTASVVCLLNNFYPREAKVQWKVDNALQSGNSQESVTEQDSKDSTYSLSSTLTLSKADYEKHKVYACEVTHQGLSSPVTKSFNRGEC
# notes: Heterodimerized IgG1 antibody; alteration in the GpH7-B3 chain only; also called He Ab
# B2: GpH7-A5/GpH7-B3 variant Y300_10E/GpL16-k0 (antibody, human IgG1, kappa)
# heavy 1: not shown
# heavy 2: not shown
# light: B1 light
# notes: as for B1
# B3: GpH7-A5/GpH7-B3 variant Y296_16H/GpL16-k0 (antibody, human IgG1, kappa)
# heavy 1: not shown
# heavy 2: not shown
# light: B1 light
# notes: as for B1
# B4: GpH7-A5/GpH7-B3 variant Y296_18N/GpL16-k0 (antibody, human IgG1, kappa)
# heavy 1: not shown
# heavy 2: not shown
# light: B1 light
# notes: as for B1
# B5: GpH7-B3 variant K334_01G/GpL16-k0 (antibody, human IgG1, kappa)
# heavy: not shown
# light: B1 light
# notes: Alteration in both H chains; also called Ho Ab K334_01G
# B6: GpH7-B3 variant P271_18N/GpL16-k0 (antibody, human IgG1, kappa)
# heavy: not shown
# light: B1 light
# notes: Alteration in both H chains; also called Ho Ab P271_18N
# B7: GpH7-B3 variant S324_10E/GpL16-k0 (antibody, human IgG1, kappa)
# heavy: not shown
# light: B1 light
# notes: Alteration in both H chains; also called Ho Ab S324_10E
# B8: GpH7-B3 variant K326_20W/GpL16-k0 (antibody, human IgG1, kappa)
# heavy: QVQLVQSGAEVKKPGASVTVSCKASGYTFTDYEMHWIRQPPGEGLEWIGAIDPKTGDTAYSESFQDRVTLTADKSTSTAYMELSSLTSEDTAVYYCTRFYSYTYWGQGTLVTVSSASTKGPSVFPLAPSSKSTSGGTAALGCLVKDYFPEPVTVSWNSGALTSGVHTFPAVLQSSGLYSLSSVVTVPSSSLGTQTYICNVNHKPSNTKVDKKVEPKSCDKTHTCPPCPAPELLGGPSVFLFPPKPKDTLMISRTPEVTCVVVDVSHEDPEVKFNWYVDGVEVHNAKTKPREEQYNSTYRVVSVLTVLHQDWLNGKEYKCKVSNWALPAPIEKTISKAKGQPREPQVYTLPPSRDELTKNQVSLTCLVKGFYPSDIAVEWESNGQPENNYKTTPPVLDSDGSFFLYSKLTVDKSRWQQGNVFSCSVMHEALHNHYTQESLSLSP
# light: B1 light
# notes: Alteration in both H chains; also called Ho Ab K326_20W
# B9: GpH7-B3 variant K334_18N/GpL16-k0 (antibody, human IgG1, kappa)
# heavy: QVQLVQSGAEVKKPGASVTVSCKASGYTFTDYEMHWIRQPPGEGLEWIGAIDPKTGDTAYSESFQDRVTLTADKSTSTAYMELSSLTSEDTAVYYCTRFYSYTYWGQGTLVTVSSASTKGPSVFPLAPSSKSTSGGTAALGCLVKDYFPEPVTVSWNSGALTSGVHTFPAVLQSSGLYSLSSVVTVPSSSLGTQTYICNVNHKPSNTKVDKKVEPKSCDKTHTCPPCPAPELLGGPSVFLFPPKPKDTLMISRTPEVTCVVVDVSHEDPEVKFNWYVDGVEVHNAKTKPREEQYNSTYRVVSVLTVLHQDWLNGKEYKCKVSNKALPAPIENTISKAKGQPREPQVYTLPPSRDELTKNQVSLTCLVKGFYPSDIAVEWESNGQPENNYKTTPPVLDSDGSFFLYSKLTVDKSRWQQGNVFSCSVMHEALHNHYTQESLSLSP
# light: B1 light
# notes: Alteration in both H chains; also called Ho Ab K334_18N
# B10: GpH7-B3 variant K334_19Q/GpL16-k0 (antibody, human IgG1, kappa)
# heavy: not shown
# light: B1 light
# notes: Alteration in both H chains; also called Ho Ab K334_19Q
# B11: GpH7-B3 variant K326_08L/GpL16-k0 (antibody, human IgG1, kappa)
# heavy: not shown
# light: B1 light
# notes: Alteration in both H chains; also called Ho Ab K326_08L
# B12: GpH7-B3 variant K334_09D/GpL16-k0 (antibody, human IgG1, kappa)
# heavy: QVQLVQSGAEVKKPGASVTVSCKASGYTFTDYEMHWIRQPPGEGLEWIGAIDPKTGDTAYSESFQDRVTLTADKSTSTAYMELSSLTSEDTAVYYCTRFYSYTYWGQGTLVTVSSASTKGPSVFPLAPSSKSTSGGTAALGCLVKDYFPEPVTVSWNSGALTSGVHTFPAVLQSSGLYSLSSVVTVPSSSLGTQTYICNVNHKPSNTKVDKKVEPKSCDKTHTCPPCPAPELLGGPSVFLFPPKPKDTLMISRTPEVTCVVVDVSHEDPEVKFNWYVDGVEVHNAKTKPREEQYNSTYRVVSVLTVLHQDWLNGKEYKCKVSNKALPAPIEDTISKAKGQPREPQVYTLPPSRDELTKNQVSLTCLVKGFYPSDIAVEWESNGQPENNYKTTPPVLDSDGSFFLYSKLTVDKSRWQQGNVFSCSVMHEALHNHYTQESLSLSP
# light: B1 light
# notes: Alteration in both H chains; also called Ho Ab K334_09D
# B13: GpH7-B3 variant S239_10E/GpL16-k0 (antibody, human IgG1, kappa)
# heavy: not shown
# light: B1 light
# notes: Alteration in both H chains; also called Ho Ab S239_10E
# B14: GpH7-B3 variant K334_15Y/GpL16-k0 (antibody, human IgG1, kappa)
# heavy: not shown
# light: B1 light
# notes: Alteration in both H chains; also called Ho Ab K334_15Y
# B15: GpH7-B3 variant K334_04F/GpL16-k0 (antibody, human IgG1, kappa)
# heavy: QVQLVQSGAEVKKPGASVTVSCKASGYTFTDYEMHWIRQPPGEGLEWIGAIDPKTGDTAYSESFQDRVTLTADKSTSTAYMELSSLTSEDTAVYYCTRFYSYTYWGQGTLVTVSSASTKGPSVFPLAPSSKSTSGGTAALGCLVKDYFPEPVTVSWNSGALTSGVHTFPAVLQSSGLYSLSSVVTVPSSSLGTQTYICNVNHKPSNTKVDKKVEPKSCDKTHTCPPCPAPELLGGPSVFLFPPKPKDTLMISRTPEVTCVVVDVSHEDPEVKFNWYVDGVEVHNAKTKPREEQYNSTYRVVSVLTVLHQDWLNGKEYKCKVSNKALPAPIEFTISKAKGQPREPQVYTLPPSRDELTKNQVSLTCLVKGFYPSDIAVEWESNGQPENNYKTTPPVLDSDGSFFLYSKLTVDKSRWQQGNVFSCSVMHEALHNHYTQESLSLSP
# light: B1 light
# notes: Alteration in both H chains; also called Ho Ab K334_04F
# B16: GpH7-B3 variant K334_07I/GpL16-k0 (antibody, human IgG1, kappa)
# heavy: not shown
# light: B1 light
# notes: Alteration in both H chains; also called Ho Ab K334_07I
# B17: GpH7-B3 variant K326_19Q/GpL16-k0 (antibody, human IgG1, kappa)
# heavy: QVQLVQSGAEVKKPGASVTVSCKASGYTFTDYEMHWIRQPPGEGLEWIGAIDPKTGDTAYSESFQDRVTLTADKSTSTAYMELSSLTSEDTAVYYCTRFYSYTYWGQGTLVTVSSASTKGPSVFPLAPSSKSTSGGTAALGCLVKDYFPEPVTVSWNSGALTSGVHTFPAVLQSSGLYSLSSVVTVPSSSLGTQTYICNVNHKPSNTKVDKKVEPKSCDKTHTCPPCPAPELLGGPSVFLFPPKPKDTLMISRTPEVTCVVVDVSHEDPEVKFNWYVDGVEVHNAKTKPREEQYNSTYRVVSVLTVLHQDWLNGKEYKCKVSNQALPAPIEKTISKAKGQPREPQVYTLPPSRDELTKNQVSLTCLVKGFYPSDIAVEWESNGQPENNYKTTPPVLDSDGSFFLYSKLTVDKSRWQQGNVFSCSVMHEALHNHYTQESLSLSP
# light: B1 light
# notes: Alteration in both H chains; also called Ho Ab K326_19Q
# B18: GpH7-B3 variant K334_02A/GpL16-k0 (antibody, human IgG1, kappa)
# heavy: not shown
# light: B1 light
# notes: Alteration in both H chains; also called Ho Ab K334_02A
# B19: GpH7-B3 variant S298_09D/GpL16-k0 (antibody, human IgG1, kappa)
# heavy: not shown
# light: B1 light
# notes: Alteration in both H chains; also called Ho Ab S298_09D
# B20: GpH7-B3 variant S267_19Q/GpL16-k0 (antibody, human IgG1, kappa)
# heavy: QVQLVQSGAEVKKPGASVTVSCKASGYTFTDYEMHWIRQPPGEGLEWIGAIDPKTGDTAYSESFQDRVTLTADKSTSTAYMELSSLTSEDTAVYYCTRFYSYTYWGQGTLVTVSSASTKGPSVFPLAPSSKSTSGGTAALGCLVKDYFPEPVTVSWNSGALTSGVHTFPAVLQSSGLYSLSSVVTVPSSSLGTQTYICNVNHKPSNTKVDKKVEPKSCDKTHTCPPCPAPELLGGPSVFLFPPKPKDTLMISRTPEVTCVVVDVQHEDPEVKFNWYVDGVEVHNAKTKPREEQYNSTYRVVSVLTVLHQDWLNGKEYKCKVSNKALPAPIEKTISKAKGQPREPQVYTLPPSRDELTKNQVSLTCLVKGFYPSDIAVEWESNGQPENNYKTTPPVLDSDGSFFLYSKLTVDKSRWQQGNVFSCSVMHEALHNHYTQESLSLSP
# light: B1 light
# notes: Alteration in both H chains; also called Ho Ab S267_19Q
# B21: GpH7-B3 variant K334_08L/GpL16-k0 (antibody, human IgG1, kappa)
# heavy: not shown
# light: B1 light
# notes: Alteration in both H chains; also called Ho Ab K334_08L
# B22: GpH7-B3 variant S267_10E/GpL16-k0 (antibody, human IgG1, kappa)
# heavy: not shown
# light: B1 light
# notes: Alteration in both H chains; also called Ho Ab S267_10E
# B23: GpH7-B3 variant K334_13S/GpL16-k0 (antibody, human IgG1, kappa)
# heavy: not shown
# light: B1 light
# notes: Alteration in both H chains; also called Ho Ab K334_13S
# B24: GpH7-B3 variant K334_16H/GpL16-k0 (antibody, human IgG1, kappa)
# heavy: not shown
# light: B1 light
# notes: Alteration in both H chains; also called Ho Ab K334_16H
# B25: GpH7-B3 variant S324_09D/GpL16-k0 (antibody, human IgG1, kappa)
# heavy: not shown
# light: B1 light
# notes: Alteration in both H chains; also called Ho Ab S324_09D
# B26: GpH7-B3 variant P271_08L/GpL16-k0 (antibody, human IgG1, kappa)
# heavy: not shown
# light: B1 light
# notes: Alteration in both H chains; also called Ho Ab P271_08L
# B27: GpH7-B3 variant Q295_10E/GpL16-k0 (antibody, human IgG1, kappa)
# heavy: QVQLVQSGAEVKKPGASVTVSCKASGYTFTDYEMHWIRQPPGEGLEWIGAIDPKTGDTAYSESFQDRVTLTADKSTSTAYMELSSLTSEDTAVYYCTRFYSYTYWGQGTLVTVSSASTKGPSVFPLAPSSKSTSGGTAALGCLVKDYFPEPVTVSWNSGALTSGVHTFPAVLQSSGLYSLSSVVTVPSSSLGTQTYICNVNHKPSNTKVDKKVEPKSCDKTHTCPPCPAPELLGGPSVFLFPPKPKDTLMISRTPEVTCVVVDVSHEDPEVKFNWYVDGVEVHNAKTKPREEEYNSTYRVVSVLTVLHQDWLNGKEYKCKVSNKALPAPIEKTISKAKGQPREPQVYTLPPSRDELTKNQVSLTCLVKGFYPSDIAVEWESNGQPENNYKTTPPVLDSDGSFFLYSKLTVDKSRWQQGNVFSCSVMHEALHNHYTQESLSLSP
# light: B1 light
# notes: Alteration in both H chains; also called Ho Ab Q295_10E
# B28: GpH7-B3 variant P271_19Q/GpL16-k0 (antibody, human IgG1, kappa)
# heavy: not shown
# light: B1 light
# notes: Alteration in both H chains; also called Ho Ab P271_19Q
# B29: GpH7-B3 variant S267_18N/GpL16-k0 (antibody, human IgG1, kappa)
# heavy: not shown
# light: B1 light
# notes: Alteration in both H chains; also called Ho Ab S267_18N
# B30: GpH7-B3 variant S267_14T/GpL16-k0 (antibody, human IgG1, kappa)
# heavy: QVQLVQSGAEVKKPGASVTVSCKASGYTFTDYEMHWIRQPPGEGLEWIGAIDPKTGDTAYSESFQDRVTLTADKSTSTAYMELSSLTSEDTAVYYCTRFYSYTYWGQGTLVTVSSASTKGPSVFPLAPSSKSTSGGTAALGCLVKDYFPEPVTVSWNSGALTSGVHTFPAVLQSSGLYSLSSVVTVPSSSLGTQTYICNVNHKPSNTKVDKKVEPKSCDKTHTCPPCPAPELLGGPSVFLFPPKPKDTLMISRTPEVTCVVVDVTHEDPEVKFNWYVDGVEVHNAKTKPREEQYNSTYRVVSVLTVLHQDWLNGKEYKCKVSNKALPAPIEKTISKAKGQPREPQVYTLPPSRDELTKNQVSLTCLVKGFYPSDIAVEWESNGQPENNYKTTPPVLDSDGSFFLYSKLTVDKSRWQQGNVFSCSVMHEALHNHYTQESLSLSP
# light: B1 light
# notes: Alteration in both H chains; also called Ho Ab S267_14T
# B31: GpH7-B3 variant P271_10E/GpL16-k0 (antibody, human IgG1, kappa)
# heavy: not shown
# light: B1 light
# notes: Alteration in both H chains; also called Ho Ab P271_10E
# B32: GpH7-B3 variant I336_16H/GpL16-k0 (antibody, human IgG1, kappa)
# heavy: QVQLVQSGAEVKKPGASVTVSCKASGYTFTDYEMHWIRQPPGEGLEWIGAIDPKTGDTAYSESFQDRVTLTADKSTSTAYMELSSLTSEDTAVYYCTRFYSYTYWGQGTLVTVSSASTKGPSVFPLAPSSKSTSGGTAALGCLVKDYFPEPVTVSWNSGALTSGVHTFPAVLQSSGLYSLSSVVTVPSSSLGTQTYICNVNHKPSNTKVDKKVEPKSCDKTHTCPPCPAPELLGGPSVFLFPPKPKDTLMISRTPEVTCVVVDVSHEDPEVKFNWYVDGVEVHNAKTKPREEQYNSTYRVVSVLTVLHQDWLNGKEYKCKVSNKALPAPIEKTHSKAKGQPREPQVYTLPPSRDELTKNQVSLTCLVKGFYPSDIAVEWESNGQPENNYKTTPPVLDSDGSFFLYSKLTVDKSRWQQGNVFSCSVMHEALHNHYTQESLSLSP
# light: B1 light
# notes: Alteration in both H chains; also called Ho Ab I336_16H
# B33: GpH7-B3 variant K326_04F/GpL16-k0 (antibody, human IgG1, kappa)
# heavy: not shown
# light: B1 light
# notes: Alteration in both H chains; also called Ho Ab K326_04F
# B34: GpH7-B3 variant Q295_12R/GpL16-k0 (antibody, human IgG1, kappa)
# heavy: not shown
# light: B1 light
# notes: Alteration in both H chains; also called Ho Ab Q295_12R
# B35: GpH7-B3 variant K326_06M/GpL16-k0 (antibody, human IgG1, kappa)
# heavy: not shown
# light: B1 light
# notes: Alteration in both H chains; also called Ho Ab K326_06M
# B36: GpH7-B3 variant S337_16H/GpL16-k0 (antibody, human IgG1, kappa)
# heavy: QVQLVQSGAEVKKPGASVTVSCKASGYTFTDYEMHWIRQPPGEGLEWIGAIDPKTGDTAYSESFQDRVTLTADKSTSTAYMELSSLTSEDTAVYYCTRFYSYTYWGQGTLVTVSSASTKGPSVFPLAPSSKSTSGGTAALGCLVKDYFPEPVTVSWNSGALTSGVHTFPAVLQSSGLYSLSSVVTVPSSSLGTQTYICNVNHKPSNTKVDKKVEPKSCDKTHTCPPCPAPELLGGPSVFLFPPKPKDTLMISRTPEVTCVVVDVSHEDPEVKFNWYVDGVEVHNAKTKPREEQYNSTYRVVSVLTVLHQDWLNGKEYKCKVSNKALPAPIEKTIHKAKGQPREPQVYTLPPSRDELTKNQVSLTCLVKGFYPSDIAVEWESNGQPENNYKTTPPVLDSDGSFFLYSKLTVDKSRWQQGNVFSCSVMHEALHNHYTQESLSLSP
# light: B1 light
# notes: Alteration in both H chains; also called Ho Ab S337_16H
# B37: GpH7-B3 variant L328_15Y/GpL16-k0 (antibody, human IgG1, kappa)
# heavy: not shown
# light: B1 light
# notes: Alteration in both H chains; also called Ho Ab L328_15Y
# B38: GpH7-B3 variant P271_01G/GpL16-k0 (antibody, human IgG1, kappa)
# heavy: not shown
# light: B1 light
# notes: Alteration in both H chains; also called Ho Ab P271_01G
# B39: GpH7-B3 variant K326_07I/GpL16-k0 (antibody, human IgG1, kappa)
# heavy: not shown
# light: B1 light
# notes: Alteration in both H chains; also called Ho Ab K326_07I
# B40: GpH7-B3 variant S267_06M/GpL16-k0 (antibody, human IgG1, kappa)
# heavy: not shown
# light: B1 light
# notes: Alteration in both H chains; also called Ho Ab S267_06M
# B41: GpH7-B3 variant S337_14T/GpL16-k0 (antibody, human IgG1, kappa)
# heavy: not shown
# light: B1 light
# notes: Alteration in both H chains; also called Ho Ab S337_14T
# B42: GpH7-B3 variant K326_10E/GpL16-k0 (antibody, human IgG1, kappa)
# heavy: not shown
# light: B1 light
# notes: Alteration in both H chains; also called Ho Ab K326_10E
# B43: GpH7-B3 variant K334_05P/GpL16-k0 (antibody, human IgG1, kappa)
# heavy: not shown
# light: B1 light
# notes: Alteration in both H chains; also called Ho Ab K334_05P
# B44: GpH7-B3 variant I336_15Y/GpL16-k0 (antibody, human IgG1, kappa)
# heavy: not shown
# light: B1 light
# notes: Alteration in both H chains; also called Ho Ab I336_15Y
# B45: GpH7-B3 variant K326_03V/GpL16-k0 (antibody, human IgG1, kappa)
# heavy: not shown
# light: B1 light
# notes: Alteration in both H chains; also called Ho Ab K326_03V
# B46: GpH7-B3 variant S337_11K/GpL16-k0 (antibody, human IgG1, kappa)
# heavy: not shown
# light: B1 light
# notes: Alteration in both H chains; also called Ho Ab S337_11K
# B47: GpH7-B3 variant K326_09D/GpL16-k0 (antibody, human IgG1, kappa)
# heavy: not shown
# light: B1 light
# notes: Alteration in both H chains; also called Ho Ab K326_09D
# B48: GpH7-B3 variant K334_03V/GpL16-k0 (antibody, human IgG1, kappa)
# heavy: not shown
# light: B1 light
# notes: Alteration in both H chains; also called Ho Ab K334_03V
# B49: GpH7-B3 variant K334_14T/GpL16-k0 (antibody, human IgG1, kappa)
# heavy: not shown
# light: B1 light
# notes: Alteration in both H chains; also called Ho Ab K334_14T
# Target: T2, FcγRIIIa extracellular domain with C-terminal His tag (human, UniProt P08637 17-208)
# T2 construct: extracellular domain; also called FcgRIIIa; 3a; not shown: His tag at the C terminus
# T2 sequence (P08637 17-208): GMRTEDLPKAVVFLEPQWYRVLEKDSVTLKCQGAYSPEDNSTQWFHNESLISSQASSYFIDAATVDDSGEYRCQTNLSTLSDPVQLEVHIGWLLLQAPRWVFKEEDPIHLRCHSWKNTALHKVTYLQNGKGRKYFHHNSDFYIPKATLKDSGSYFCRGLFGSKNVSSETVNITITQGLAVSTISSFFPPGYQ
# Assay: SPR (Biacore); He/Con_3a divided by He/Con_2b (FcγRIIb)
row,Binder,He_3a/2b (IIIa/IIb)
1,B1,0.73 ratio
2,B2,0.78 ratio
3,B3,0.8 ratio
4,B4,0.79 ratio

# Target: T3, FcγRIa (human, UniProt P12314 16-292)
# T3 construct: extracellular domain; also called FcgRI; FcgRIa; not shown: His tag attached to the C terminus
# T3 sequence (P12314 16-292): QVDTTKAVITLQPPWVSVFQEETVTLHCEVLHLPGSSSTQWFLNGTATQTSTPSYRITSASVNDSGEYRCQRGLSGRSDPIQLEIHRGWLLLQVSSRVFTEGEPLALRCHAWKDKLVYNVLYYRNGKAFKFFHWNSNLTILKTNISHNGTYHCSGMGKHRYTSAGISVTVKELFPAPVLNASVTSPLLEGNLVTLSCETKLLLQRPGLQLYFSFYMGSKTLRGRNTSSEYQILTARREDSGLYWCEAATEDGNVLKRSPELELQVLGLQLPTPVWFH
# Assay: SPR (Biacore), relative binding; control HoCon Ab GpH7-B3/GpL16-k0
row,Binder,Ho/Con_1a
1,B5,106 % of control (=100)
2,B6,103 % of control (=100)
3,B7,106 % of control (=100)
4,B8,104 % of control (=100)
5,B9,108 % of control (=100)
6,B10,106 % of control (=100)
7,B11,101 % of control (=100)
8,B12,108 % of control (=100)
9,B13,106 % of control (=100)
10,B14,107 % of control (=100)
11,B15,106 % of control (=100)
12,B16,107 % of control (=100)
13,B17,105 % of control (=100)
14,B18,106 % of control (=100)
15,B19,106 % of control (=100)
16,B20,104 % of control (=100)
17,B21,108 % of control (=100)
18,B22,107 % of control (=100)
19,B23,106 % of control (=100)
20,B24,106 % of control (=100)
21,B25,106 % of control (=100)
22,B26,103 % of control (=100)
23,B27,105 % of control (=100)

row,Binder,Ho/Con_1a
1,B28,104 % of control (=100)
2,B29,107 % of control (=100)
3,B30,107 % of control (=100)
4,B31,103 % of control (=100)
5,B32,114 % of control (=100)
6,B33,102 % of control (=100)
7,B34,101 % of control (=100)
8,B35,104 % of control (=100)
9,B36,105 % of control (=100)
10,B37,104 % of control (=100)
11,B38,106 % of control (=100)
12,B39,102 % of control (=100)
13,B40,106 % of control (=100)
14,B41,106 % of control (=100)
15,B42,105 % of control (=100)
16,B43,106 % of control (=100)
17,B44,110 % of control (=100)
18,B45,103 % of control (=100)
19,B46,105 % of control (=100)
20,B47,106 % of control (=100)
21,B48,105 % of control (=100)
22,B49,106 % of control (=100)

# Target: T1, FcγRIIb extracellular domain with …
# Assay: SPR (Biacore), FcγR as analyte over captured antibody; GpH7-A5/GpH7-B3/GpL16-k0 = 100
row,Binder,He/Con_2b
1,B1,88.2 % of control
2,B2,134 % of control
3,B3,92.2 % of control
4,B4,91.5 % of control

# Target: T2, FcγRIIIa extracellular domain with …
# Assay: as above
row,Binder,He/Con_3a
1,B1,64.5 % of control
2,B2,104 % of control
3,B3,73.4 % of control
4,B4,72.1 % of control
